The text below walks through data of patent US20150079090A1 (JOSAI UNIVERSITY, published 2015).

Ends that are not written are not given here.

This experiment deals with T1, conjugate of a peptide consisting of an amino acid sequence represented by SEQ ID NO:1 (SSVLYGGPPSAA) and KLH (also: conjugated to KLH with glutaraldehyde, site and number per carrier not given here).
T1 construct: Synthetic peptide (Fmoc solid phase) cross-linked to KLH by glutaraldehyde; also called antigenic substance; antigen
T1 peptide: SSVLYGGPPSAA
The experiment is described as follows: ELISA of hybridoma culture supernatant on plate coated with the peptide-KLH conjugate, fluorescence read-out. On the procedure: A buffer solution containing the above-mentioned antigenic substance (5 mg) (Baicarbonate buffer: 100 mM NaHCO₃—NaOH, pH 9.2 to 9.5, the concentration of the peptide: 1 μg/mL) was added to a 96 well flat bottom plate in an amount of 50 μL per well, and allowed to stand for coating at room temperature for 2 hours. The plate was washed 3 times with wash buffer (PBST), and then blocking buffer (3% skim milk 1% BSA, PBS) was added in an amount of 200 to 250 μL/well to react at 4° C. for one full day, and then washed 3 times. Then the culture supernatant of hybridoma was added in an amount of 100 μL/well, which was allowed to react at 37° C. for 4 hours or at 4° C. for one full day. After the plate was washed 3 times, biotin-labeled anti-mouse IgG (SIGMA) diluted 10000 times with dilution buffer (10 mM Tris-HCl (pH 8.0), 0.9% (W/V) NaCl, 0.05% (W/V) Tween 20) was added in an amount of 50 μL/well, which was allowed to react at room temperature for 2 hours. […] Then washing was performed 6 times, and fluorescent substrate buffer (Attophos substrate buffer, Roche Diagnostics K.K.) was added in an amount of 50 μL/well, and the plate was shaded to allow fluorescence to develop. Fluorescence intensity was measured in CytoFluorII (PerSeptive Biosystems).
For orientation: ELISA stands for enzyme-linked immunosorbent assay.

B1: monoclonal antibody (SSVmAb) of Example 1, produced by hybridoma Mouse-Mouse hybridoma SSV-C 93-3 (NITE BP-972) (antibody, IgG1, V domains shown)
VH: EIQLQQSGAELVKPGASVKISCKASGYSFTGYNMNWVKQSHGKSLEWIGNINPYYGSTSYNQKFKGKATLTVDKSSSTAYMQLNSLTSEDSAVYYCARSPYYSNYWRYFDYWGQGTTLTVSS
VL: QIVLSQSPAILSASPGEKVTMTCRASSSVSYMHWYQQKPGSSPKPWIYATSNLASGVPARFSGSGSGTSYSLTISRVEAEDAATYYCQQWSSNPWTFGGGTKLEIK
notes: Mouse hybridoma antibody
As to B1, the binding result is given as “binds”.
